# Results as given in paper PMC8897273 (Journal of molecular biology, 2022).
# B1: Poly(A)18 (ssRNA)
# RNA: AAAAAAAAAAAAAAAAAA
# Molecular target: PABP1;eIF4G1 (88-653) (Homo sapiens;Homo sapiens, UniProt P11940;Q04637 1-636;88-653, |)
# Test: EMSA
# Sequence of PABP1;eIF4G1 (88-653) (P11940 whole entry, chain 1 of 2): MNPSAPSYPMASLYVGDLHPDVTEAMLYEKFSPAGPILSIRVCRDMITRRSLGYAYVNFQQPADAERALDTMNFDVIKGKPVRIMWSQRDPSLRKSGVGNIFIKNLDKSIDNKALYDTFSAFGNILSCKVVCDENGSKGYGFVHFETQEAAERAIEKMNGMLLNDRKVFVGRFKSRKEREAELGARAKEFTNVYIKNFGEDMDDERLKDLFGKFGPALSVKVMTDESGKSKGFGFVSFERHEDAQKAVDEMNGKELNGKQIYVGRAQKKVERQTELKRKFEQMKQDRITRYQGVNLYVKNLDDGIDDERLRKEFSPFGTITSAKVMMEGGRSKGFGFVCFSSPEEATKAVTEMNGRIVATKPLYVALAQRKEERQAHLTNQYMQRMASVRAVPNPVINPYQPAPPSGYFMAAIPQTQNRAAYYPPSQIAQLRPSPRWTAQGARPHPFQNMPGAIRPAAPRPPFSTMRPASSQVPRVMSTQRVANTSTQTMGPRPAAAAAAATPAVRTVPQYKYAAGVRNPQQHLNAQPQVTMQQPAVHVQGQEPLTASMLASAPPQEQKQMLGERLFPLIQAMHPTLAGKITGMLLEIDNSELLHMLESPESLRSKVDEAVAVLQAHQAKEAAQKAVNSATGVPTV
# Sequence of PABP1;eIF4G1 (88-653) (Q04637 88-653, chain 2 of 2): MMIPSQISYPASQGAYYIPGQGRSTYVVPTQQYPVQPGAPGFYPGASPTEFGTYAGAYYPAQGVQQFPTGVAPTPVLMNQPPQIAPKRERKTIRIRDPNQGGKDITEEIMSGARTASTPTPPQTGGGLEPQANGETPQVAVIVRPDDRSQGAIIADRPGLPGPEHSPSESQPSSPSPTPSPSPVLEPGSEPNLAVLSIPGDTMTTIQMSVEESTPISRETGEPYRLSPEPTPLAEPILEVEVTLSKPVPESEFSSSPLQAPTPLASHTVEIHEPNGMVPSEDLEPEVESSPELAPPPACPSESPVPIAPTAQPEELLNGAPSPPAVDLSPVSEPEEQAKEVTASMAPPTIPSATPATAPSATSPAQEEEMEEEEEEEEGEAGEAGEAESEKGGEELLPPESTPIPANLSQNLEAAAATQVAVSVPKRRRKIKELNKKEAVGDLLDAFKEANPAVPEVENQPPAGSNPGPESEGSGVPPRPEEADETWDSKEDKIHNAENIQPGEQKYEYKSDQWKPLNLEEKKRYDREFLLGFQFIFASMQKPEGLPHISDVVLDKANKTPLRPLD
binder,measurement,value
B1,binding result,binds
